A short description of this data set: collision cross section of modified peptide (TIMS, N2, iRT-aligned); higher = larger / more extended gas-phase ion. The protocol:
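1/K0 was aligned run-wise to spiked iRT peptides and converted to CCS in N2 (Mason-Schamp). Values are the mean of 1-3 technical replicates for the most abundant feature at each charge state.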

Setting [1] is: charge state: 2, modification: Acetyl (K).
The mark [2] stands for this setting: charge state: 3, modification: Acetyl (K).
Where [3] appears, read: charge state: 2, modification: Biotin.
Setting [4] is: charge state: 2, modification: Butyryl.
Where [5] appears, read: charge state: 3, modification: Butyryl.
Setting [6] is: charge state: 2, modification: Crotonyl.
The mark [7] stands for this setting: charge state: 3, modification: Crotonyl.
Setting [8] is: charge state: 3, modification: Dimethyl (K).
[9] abbreviates: charge state: 2, modification: Formyl.
Setting [10] is: charge state: 2, modification: Glutarylation.
Setting [11] is: charge state: 3, modification: Glutarylation.
The mark [12] stands for this setting: charge state: 2, modification: GlyGly (K).
[13] abbreviates: charge state: 3, modification: GlyGly (K).
Setting [14] is: charge state: 2, modification: Malonyl.
Setting [15] is: charge state: 2, modification: Methyl (K).
The mark [16] stands for this setting: charge state: 3, modification: Methyl (K).
[17] abbreviates: charge state: 2, modification: Succinyl.
The mark [18] stands for this setting: charge state: 3, modification: Succinyl.
Setting [19] is: charge state: 3, modification: Trimethyl (K).
Setting [20] is: charge state: 2, modification: hydroxyisobutyryl.
Where [21] appears, read: charge state: 3, modification: hydroxyisobutyryl.
[22] abbreviates: charge state: 2, modification: Nitro (Y).
[23] abbreviates: charge state: 2, modification: Phospho (Y).
Where [24] appears, read: charge state: 2, modification: HexNAc (ST).
The mark [25] stands for this setting: charge state: 2, modification: Citrullination (R).
[26] abbreviates: charge state: 2, modification: Methyl (R).
[27] abbreviates: charge state: 2, modification: Dimethyl (K).
The mark [28] stands for this setting: charge state: 2, modification: Trimethyl (K).

± gives the standard deviation.

Turning to “ANLEKAQAELVGTADEATR [_ANLEK(Acetyl (K))AQAELVGTADEATR_]”, the collision cross section runs as follows: under setting [1], 471.91 ± 3.1 Å²; under setting [2], 570.31 ± 0.74 Å².

With “ANLEKAQAELVGTADEATR [_ANLEK(Biotin)AQAELVGTADEATR_]”, the collision cross section under setting [3] stood at 492.92 Å².

As for “ANLEKAQAELVGTADEATR [_ANLEK(Butyryl)AQAELVGTADEATR_]”, the collision cross section is, setting by setting: under setting [4], 479.49 ± 1.1 Å²; under setting [5], 578.23 ± 2 Å². Take “ANLEKAQAELVGTADEATR [_ANLEK(Crotonyl)AQAELVGTADEATR_]”: the collision cross section under setting [6] is reported as 478.55 ± 1.5 Å² and the collision cross section under setting [7] is on record as 577.75 ± 0.5 Å².

Under setting [8], “ANLEKAQAELVGTADEATR [_ANLEK(Dimethyl (K))AQAELVGTADEATR_]” had a collision cross section of 525.41 ± 0.76 Å². In the case of “ANLEKAQAELVGTADEATR [_ANLEK(Formyl)AQAELVGTADEATR_]”, the collision cross section is, setting by setting: under setting [9], 471.04 ± 1.4 Å²; (charge state: 3, modification: Formyl) 566.89 ± 0.82 Å². For the substance “ANLEKAQAELVGTADEATR [_ANLEK(Gluratylation)AQAELVGTADEATR_]”, the collision cross section by setting is: under setting [10], 478.84 ± 1.4 Å²; under setting [11], 584.83 ± 0.77 Å². Regarding “ANLEKAQAELVGTADEATR [_ANLEK(GlyGly (K))AQAELVGTADEATR_]”, the collision cross section under setting [12] is reported as 487.2 ± 1.5 Å² and the collision cross section under setting [13] turned out to be 513.9 ± 1.3 Å².

For “ANLEKAQAELVGTADEATR [_ANLEK(Malonyl)AQAELVGTADEATR_]”, the collision cross section turned out to be 476.69 ± 0.96 Å² under setting [14] and 576.12 ± 0.95 Å² (charge state: 3, modification: Malonyl).

The substance “ANLEKAQAELVGTADEATR [_ANLEK(Methyl (K))AQAELVGTADEATR_]” showed a collision cross section under setting [15] of 471.05 Å² and a collision cross section under setting [16] of 523.1 ± 0.87 Å². Take “ANLEKAQAELVGTADEATR [_ANLEK(Succinyl)AQAELVGTADEATR_]”: the collision cross section by setting is: under setting [17], 479.08 ± 0.78 Å²; under setting [18], 580.29 ± 0.37 Å².

For “ANLEKAQAELVGTADEATR [_ANLEK(Trimethyl (K))AQAELVGTADEATR_]”, the collision cross section under setting [19] amounted to 528.43 ± 0.88 Å². For the substance “ANLEKAQAELVGTADEATR [_ANLEK(hydroxyisobutyryl)AQAELVGTADEATR_]”, the collision cross section runs as follows: under setting [20], 473.77 ± 6.8 Å²; under setting [21], 579.16 ± 1.2 Å².

As for APEYLHR [_APEY(Nitro (Y))LHR_], the collision cross section under setting [22] worked out at 321.02 ± 1.2 Å². APEYLHR [_APEY(Phospho (Y))LHR_]: under setting [23], the collision cross section amounted to 334.14 ± 1.5 Å². Under setting [24], APIISGVTK [_APIIS(HexNAc (ST))GVTK_] yielded a collision cross section of 340.53 ± 0.64 Å².

“APPIDRSILPTAPR [_APPIDR(Citrullination (R))SILPTAPR_]”: the collision cross section by setting is: under setting [25], 410.86 ± 0.21 Å²; (charge state: 3, modification: Citrullination (R)) 480.52 ± 0.41 Å².

“APPIDRSILPTAPR [_APPIDR(Methyl (R))SILPTAPR_]” displayed a collision cross section (charge state: 3, modification: Methyl (R)) of 489.12 ± 2.5 Å². In turn, “APVGSVVSVPSQSSASSDK [_APVGSVVSVPSQS(HexNAc (ST))SASSDK_]” returned a collision cross section under setting [24] of 464.2 ± 0.14 Å². As to AQLSQYFDAVK [_AQLSQY(Nitro (Y))FDAVK_], the collision cross section under setting [22] worked out at 386.8 ± 0.8 Å². Regarding “AQPQDSRGGSK [_AQPQDSR(Citrullination (R))GGSK_]”, under setting [25], the collision cross section is on record as 347.45 ± 0.9 Å².

AQPQDSRGGSK [_AQPQDSR(Methyl (R))GGSK_]: under setting [26], the collision cross section came out at 351.96 ± 2.1 Å². In turn, “AQPSASLGVGYR [_AQPSAS(HexNAc (ST))LGVGYR_]” gave a collision cross section under setting [24] of 394.91 ± 0.63 Å². For AQSYAQQLGR [_AQSY(Nitro (Y))AQQLGR_], under setting [22], the collision cross section is on record as 354.17 ± 0.17 Å².

With AQSYAQQLGR [_AQSY(Phospho (Y))AQQLGR_], the collision cross section under setting [23] is recorded as 354.7 ± 0.065 Å². “AQVLAGGRGK [_AQVLAGGR(Citrullination (R))GK_]” gave a collision cross section under setting [25] of 333.54 ± 0.75 Å². Under setting [26], AQVLAGGRGK [_AQVLAGGR(Methyl (R))GK_] registered a collision cross section of 352.61 ± 7.6 Å². In turn, “ASAISIKLGSSK [_ASAISIK(Acetyl (K))LGSSK_]” showed a collision cross section under setting [1] of 368.59 ± 0.51 Å². In the case of ASAISIKLGSSK [_ASAISIK(Biotin)LGSSK_], under setting [3], the collision cross section was 410.18 ± 1.1 Å². As to ASAISIKLGSSK [_ASAISIK(Butyryl)LGSSK_], the collision cross section under setting [4] is 375.24 ± 1.9 Å².

The substance ASAISIKLGSSK [_ASAISIK(Crotonyl)LGSSK_] displayed a collision cross section under setting [6] of 374.63 ± 0.89 Å².

In turn, “ASAISIKLGSSK [_ASAISIK(Dimethyl (K))LGSSK_]” displayed a collision cross section under setting [27] of 373.07 ± 0.36 Å² and a collision cross section under setting [8] of 447.62 Å². ASAISIKLGSSK [_ASAISIK(Formyl)LGSSK_] gave a collision cross section under setting [9] of 364.8 ± 0.89 Å². With “ASAISIKLGSSK [_ASAISIK(Gluratylation)LGSSK_]”, under setting [10], the collision cross section amounted to 376.68 ± 0.1 Å². Under setting [12], “ASAISIKLGSSK [_ASAISIK(GlyGly (K))LGSSK_]” yielded a collision cross section of 390.99 ± 1 Å². Substance ASAISIKLGSSK [_ASAISIK(Malonyl)LGSSK_] came in with a collision cross section under setting [14] of 370.34 ± 0.77 Å². As for “ASAISIKLGSSK [_ASAISIK(Methyl (K))LGSSK_]”, the collision cross section by setting is: under setting [15], 369.46 ± 0.48 Å²; under setting [16], 438.5 ± 5.9 Å². Turning to ASAISIKLGSSK [_ASAISIK(Succinyl)LGSSK_], the collision cross section under setting [17] is given as 372.2 ± 0.24 Å².

For “ASAISIKLGSSK [_ASAISIK(Trimethyl (K))LGSSK_]”, the collision cross section worked out at 386.31 ± 1.1 Å² under setting [28] and 448.52 ± 3.3 Å² under setting [19]. The substance “ASAISIKLGSSK [_ASAISIK(hydroxyisobutyryl)LGSSK_]” displayed a collision cross section under setting [20] of 374.73 ± 0.8 Å².

As to ASCLYGQLPK [_ASCLY(Nitro (Y))GQLPK_], under setting [22], the collision cross section is 365.43 ± 2.1 Å². In turn, ASCLYGQLPK [_ASCLY(Phospho (Y))GQLPK_] came in with a collision cross section under setting [23] of 373.97 ± 0.65 Å².

“ASDTSSETVFGKR [_ASDTSSETVFGK(Acetyl (K))R_]”: the collision cross section under setting [1] is 397.17 ± 0.32 Å² and the collision cross section under setting [2] was determined as 476.65 ± 0.87 Å².

Under setting [3], ASDTSSETVFGKR [_ASDTSSETVFGK(Biotin)R_] had a collision cross section of 406.15 Å².

Regarding “ASDTSSETVFGKR [_ASDTSSETVFGK(Butyryl)R_]”, the collision cross section was found to be 403.53 ± 0.74 Å² under setting [4] and 479.86 ± 1.9 Å² under setting [5]. Consider “ASDTSSETVFGKR [_ASDTSSETVFGK(Crotonyl)R_]”, for which the collision cross section runs as follows: under setting [6], 402.93 ± 0.81 Å²; under setting [7], 478.92 ± 1.3 Å². “ASDTSSETVFGKR [_ASDTSSETVFGK(Dimethyl (K))R_]” yielded a collision cross section under setting [27] of 409.3 ± 1.1 Å² and a collision cross section under setting [8] of 469.84 ± 1.6 Å². Turning to ASDTSSETVFGKR [_ASDTSSETVFGK(Formyl)R_], the collision cross section under setting [9] is reported as 390.61 ± 0.41 Å². In the case of “ASDTSSETVFGKR [_ASDTSSETVFGK(Gluratylation)R_]”, the collision cross section reads like this: under setting [10], 400.66 ± 0.51 Å²; under setting [11], 483.77 ± 1.7 Å². Turning to “ASDTSSETVFGKR [_ASDTSSETVFGK(GlyGly (K))R_]”, the collision cross section came to 414.9 ± 1.4 Å² under setting [12] and 487.28 ± 2 Å² under setting [13].

Turning to “ASDTSSETVFGKR [_ASDTSSETVFGK(Malonyl)R_]”, the collision cross section under setting [14] was found to be 387.3 ± 0.61 Å². For “ASDTSSETVFGKR [_ASDTSSETVFGK(Methyl (K))R_]”, the collision cross section under setting [15] is recorded as 406.57 ± 1.3 Å² and the collision cross section under setting [16] came out at 477.14 ± 3.8 Å². With “ASDTSSETVFGKR [_ASDTSSETVFGK(Propionyl)R_]”, the collision cross section was 398.28 ± 0.65 Å² (charge state: 2, modification: Propionyl) and 481.99 Å² (charge state: 3, modification: Propionyl). In turn, “ASDTSSETVFGKR [_ASDTSSETVFGK(Succinyl)R_]” showed a collision cross section under setting [17] of 396.57 ± 0.25 Å² and a collision cross section under setting [18] of 482.91 ± 3.3 Å². As for “ASDTSSETVFGKR [_ASDTSSETVFGK(Trimethyl (K))R_]”, the collision cross section was 414.52 ± 0.6 Å² under setting [28] and 471.76 ± 2.7 Å² under setting [19].

As to “ASDTSSETVFGKR [_ASDTSSETVFGK(hydroxyisobutyryl)R_]”, the collision cross section is, setting by setting: under setting [20], 403.06 ± 1.1 Å²; under setting [21], 485.06 ± 0.47 Å².

ASEALLKQLK [_ASEALLK(Acetyl (K))QLK_]: the collision cross section under setting [1] came to 373.11 ± 0.4 Å². The substance ASEALLKQLK [_ASEALLK(Biotin)QLK_] returned a collision cross section under setting [3] of 396.36 ± 2.2 Å². Substance ASEALLKQLK [_ASEALLK(Butyryl)QLK_] had a collision cross section under setting [4] of 379.45 ± 0.72 Å². In the case of ASEALLKQLK [_ASEALLK(Crotonyl)QLK_], under setting [6], the collision cross section was 379.57 ± 1.1 Å².

The values are drawn from the supplement of paper PMC10598134.
